Results on 26 molecules are retold here after patent US20210253679A1 (NATIONAL RESEARCH COUNCIL OF CANADA, published 2021).

As usually defined, the Kd is the concentration at which binding is half-saturated. A lower Kd goes with higher affinity.

Residue numbers refer to the chain shown, from its start.

B1: Rh46-H2 (VHH)
VHH: EVQLVESGGGLVQPGGSLRLSCAASTRTFSSYIMGWFRQAPGKERELVSAISWSGRMTHYADSVKGRFTISRDNSKNTLYLQMNSLRAEDTAVYYCAADRTTAWGAPRSQYDSWGQGTLVTVS
B2: Rh46-H4 (VHH)
VHH: QVQLVESGGGLVQPGGSLRLSCAASTRTFSSYIMGWFRQAPGKERELVAAISWSGRMTHYADSVKGRFTISRDNSKNTLYLQMNSLRAEDTAIYSCAADRTTAWGAPRSQYDSWGQGTLVTVSS
B3: Rh46-H5 (VHH)
VHH: B2 VHH with S75A, L79V
B4: Rh46-H1 (VHH)
VHH: B2 VHH with Q1E, E44G, R45L, A49S, I93V, S95Y
B5: Rh46-H3 (VHH)
VHH: B2 VHH with I93V, S95Y
B6: M75-H4 (VHH)
VHH: QVQLVESGGGLVQPGGSLRLSCAASGRTFDNYVMAWFRQAPGKEREFVASISGSGSITNYANSVKDRFTISRDSSKNALYLQMNSLRAEDTAVYYCAAGSRRTYYREPKFYPSWGQGTLVTVSS
B7: M75-H1 (VHH)
VHH: B6 VHH with Q1E, E44G, R45L, A49S, S74N, A78T
B8: M75-H5 (VHH)
VHH: B6 VHH with S75A, L79I
B9: M75-H3 (VHH)
VHH: B6 VHH with S74N, A78T
B10: M75-H2 (VHH)
VHH: B6 VHH with Q1E, A49S, S74N, A78T
B11: Rh34-H2 (VHH)
VHH: EVQLVESGGGLVQPGGSLRLSCAASGRTISLYAVGWFRQAPGKEREFVSAISWTDSSTYYADSVKGRFTISRDNSKNTLYLQMNSLRAEDTAVYYCAADVSIRGLQKYEYDYWGQGTLVTVS
B12: Rh34-H5 (VHH)
VHH: B11 VHH with E1Q, Q39R, S49A, S75A, L79V
B13: H18-H4 (VHH)
VHH: QVQLVESGGGLVQPGGSLRLSCAASGSIESINRMAWYRQAPGQQREFVARISKGGSTNYPDSVKGRFTISRDNSKNTLYLQMNSLRAEDTAVYYCAAGPVWEQFWGQGTLVTVSS
B14: H18-H5 (VHH)
VHH: B13 VHH with S74A, L78V
B15: H18-H1 (VHH)
VHH: B13 VHH with Q1E, Q43K, Q44G, R45L, A49S
B16: H18-H3 (VHH)
VHH: B13 VHH with Q43K
B17: Rh34-H4 (VHH)
VHH: QVQLVESGGGLVQPGGSLRLSCAASGRTISLYAVGWFRRAPGKEREFVAAISWTDSSTYYADSVKGRFTISRDNSKNTLYLQMNSLRAEDTAVYYCAADVSIRGLQKYEYDYWGQGTLVTVSS
B18: Rh34-H3 (VHH)
VHH: B17 VHH with R39Q
B19: Rh34-H1 (VHH)
VHH: B17 VHH with Q1E, R39Q, E44G, R45L, A49S
B20: R11-H6 (VHH)
VHH: QVQLVESGGGLVQPGGSLRLSCAGPGFLLRSNTMGWYRQAPGKERELVAFIRPSGLTNYNDAVQGRFTISRDNAKNTVYLQMNSLRAEDTAVYYCHTRPPFQRDSWGQGTLVTVSS
B21: R11-H2 (VHH)
VHH: B20 VHH with Q1E, G24A, P25S, E44G, R45L, A49S, A74S, V78L
B22: R11-H5 (VHH)
VHH: B20 VHH with A74S, V78L
B23: R28-H2 (VHH)
VHH: EVQLVESGGGLVQPGGSLRLSCAASGRTFIAYAMGWFRQAPGKEREFVSAITNFAGGTTYYADSVKGRFTISRDNSKNTLYLQMNSLRAEDTAVYYCAADRSAQTMRQVRPVLPYWGQGTLVTVSS
B24: R28-H4 (VHH)
VHH: B23 VHH with E1Q, S49A, S76A, N78T
B25: R28-H3 (VHH)
VHH: B23 VHH with E1Q, S49A
B26: R11-H1 (VHH)
VHH: B20 VHH with Q1E, G24A, P25S, E44G, R45L, A49S, A74S, V78L, H96A

In one assay the target is T1, human serum albumin (human, UniProt P02768 25-609).
T1 construct: also called HSA
The experiment in a line: SPR, single cycle kinetics, pH 7.4. (SPR reads the build-up and loss of mass on a sensor chip optically.)
In the case of B1, the equilibrium dissociation constant (Kd) came to 426 nM.
B2 had a Kd of 237 nM.
Take B3: binding was put at a Kd of 233 nM.
The molecule B4 displayed a dissociation constant (Kd) of 583 nM.
On to B5, for which binding was characterised by a dissociation constant (Kd) of 289 nM.
The same measure, in the same setting: under B6 stands 2.8 nM; under B7, 3.2 nM; under B8, 2.1 nM.
The molecule B9 registered a Kd of 4.8 nM.
On the same count and under the same terms, under B10 stands 7.8 nM; under B11, 1330 nM.
Molecule B12 had an equilibrium dissociation constant (Kd) of 410 nM.
Same read-out and setting: as for B13, the figure is 58.6 nM; as for B14, 59.4 nM.
Molecule B15 displayed an equilibrium dissociation constant (Kd) of 52.8 nM.
Still for that read-out and setting: under B16 stands 19.1 nM; under B17, 647 nM.
Still for that read-out and setting: under B18 stands 1370 nM.
Consider B19, for which the dissociation constant Kd stood at 824 nM.
Turning to B20, the affinity, expressed as Kd, was 252 nM.
Take B21: the binding result was “no binding”.
Regarding B22, binding was put at a Kd of 307 nM.
As for B23, the Kd was 147 nM.
On the same count and under the same terms, under B24 stands 11.5 nM.
B25 displayed a dissociation constant Kd of 51.3 nM.

The target of a further assay is T2, rat serum albumin (rat, UniProt P02770 25-608).
T2 construct: also called RSA
Kind of assay: SPR, single cycle kinetics, pH 7.4.
As to B1, the binding result is “no binding”.
Take B2: the binding result is on record as “no binding”.
As to B3, the binding result was “no binding”.
As for B4, the binding result is “no binding”.
B5: the binding result is on record as “no binding”.
B6 returned an equilibrium dissociation constant (Kd) of 377 nM.
On the same count and under the same terms, under B7 stands 659 nM.
Same read-out and setting: as for B8, the figure is 62.4 nM.
Still for that read-out and setting: as for B9, the figure is 1260 nM; as for B10, 2490 nM.
With B11, the binding result is “no binding”.
Still for that read-out and setting: under B12 stands “no binding”; under B13, “no binding”; under B14, “no binding”.
B15: the binding result is listed as “no binding”.
In the case of B16, the binding result was “no binding”.
On the same count and under the same terms, under B17 stands “no binding”; under B18, “no binding”; under B19, “no binding”.
Still for that read-out and setting: under B26 stands “no binding”.
In turn, B20 showed a Kd of 151 nM.
As to B21, the binding result is “no binding”.
B22: binding was put at a Kd of 196 nM.
On to B23, for which the equilibrium dissociation constant (Kd) worked out at 4.1 nM.
On the same count and under the same terms, under B24 stands 1.1 nM; under B25, 2.4 nM.

In a further assay the target is T3, rhesus serum albumin (rhesus, UniProt Q28522 17-600).
T3 construct: also called RhSA
The experiment in a line: SPR, single cycle kinetics, pH 7.4.
As to B1, the Kd turned out to be 456 nM.
The same measure, in the same setting: under B2 stands 405 nM.
The same measure, in the same setting: under B3 stands 343 nM; under B4, 707 nM.
On the same count and under the same terms, under B5 stands 415 nM.
Consider B6, for which the Kd was 6.7 nM.
Still for that read-out and setting: as for B7, the figure is 6.1 nM; as for B8, 4.6 nM.
The molecule B9 yielded an equilibrium dissociation constant (Kd) of 17.7 nM.
On the same count and under the same terms, under B10 stands 63.6 nM.
Molecule B11 registered a dissociation constant Kd of 1470 nM.
On the same count and under the same terms, as for B12, the figure is 589 nM; as for B13, 34.4 nM.
With B14, the equilibrium dissociation constant (Kd) turned out to be 91.7 nM.
In turn, B15 showed a Kd of 91.5 nM.
In turn, B16 displayed an equilibrium dissociation constant (Kd) of 38.2 nM.
B17 displayed a Kd of 739 nM.
B18: the dissociation constant Kd came out at 1260 nM.
With B19, binding was characterised by a dissociation constant (Kd) of 1350 nM.
For B26, the binding result is recorded as “no binding”.
B20: the Kd is 561 nM.
As to B21, the binding result was “no binding”.
With B22, the Kd was found to be 643 nM.
In turn, B23 registered a Kd of 2630 nM.
B24: the Kd was 1740 nM.
The same measure, in the same setting: as for B25, the figure is 625 nM.

A further assay has as its target T1, human serum albumin. The experiment in a line: SPR, single cycle kinetics, pH 5.5.
B1: binding was put at a Kd of 87.3 nM.
The molecule B2 returned a Kd of 51.5 nM.
In turn, B3 had a dissociation constant (Kd) of 54.9 nM.
As to B4, the equilibrium dissociation constant (Kd) was found to be 97.7 nM.
In turn, B5 returned a dissociation constant Kd of 70.3 nM.
In turn, B11 showed a Kd of 2320 nM.
B12 returned a Kd of 524 nM.
On to B13, for which the Kd amounted to 57.1 nM.
Same read-out and setting: as for B14, the figure is 46.6 nM.
On the same count and under the same terms, under B15 stands 56.3 nM; under B16, 22.3 nM; under B17, 974 nM.
Same read-out and setting: as for B18, the figure is 2310 nM; as for B19, 1560 nM; as for B20, 67.5 nM.
As to B22, binding was characterised by a dissociation constant (Kd) of 98.2 nM.
The same measure, in the same setting: as for B23, the figure is 6.6 nM; as for B24, 51.6 nM.
For B25, binding was characterised by a dissociation constant (Kd) of 47.2 nM.

Another assay has as its target T2, rat serum albumin. Kind of assay: SPR, single cycle kinetics, pH 5.5.
With B20, the affinity, expressed as Kd, was 123 nM.
For B22, the dissociation constant Kd came to 160 nM.
Regarding B23, the affinity, expressed as Kd, was 1 nM.
Molecule B24 gave a dissociation constant Kd of 5.3 nM.
The same measure, in the same setting: as for B25, the figure is 1.8 nM.

The target of the next assay is T3, rhesus serum albumin. Kind of assay: SPR, single cycle kinetics, pH 5.5.
B1: the Kd was found to be 44.1 nM.
B2: the equilibrium dissociation constant (Kd) was 25.2 nM.
Still for that read-out and setting: as for B3, the figure is 24.1 nM; as for B4, 40.8 nM.
In the case of B5, binding was put at a Kd of 34 nM.
Turning to B11, binding was put at a Kd of 3080 nM.
For the molecule B12, the Kd stood at 1420 nM.
As to B13, the equilibrium dissociation constant (Kd) worked out at 72.7 nM.
Still for that read-out and setting: as for B14, the figure is 70.7 nM; as for B15, 92.2 nM; as for B16, 57.6 nM.
B17 returned a Kd of 2250 nM.
For B18, the affinity, expressed as Kd, was 1810 nM.
On the same count and under the same terms, under B19 stands 1920 nM.
Still for that read-out and setting: as for B20, the figure is 511 nM; as for B22, 525 nM.
B23 showed a Kd of 668 nM.
For the molecule B24, the Kd stood at 341 nM.
Same read-out and setting: under B25 stands 1270 nM.
